Substrate in this data set: O=C(O)C[C@@H](O)C(=O)O
As to the kind of experiment: initial rates, oxygen consumption (Oxy-32 electrode). The data set is classed as biochemical, Pseudomonas aeruginosa. Particulars: E-Zn^2+ form (purified with 1 mM ZnCl2, Zn:protein about 2:1), 1 mM PMS (fixed), 25 mM NaPO4, pH 7.4, 25 °C, apparent. From the text:
initial rates, oxygen consumption (Oxy-32 electrode) on PaD2HGDH

The record followed here is PMC10025160, “Uncovering Zn^2+ as a cofactor of FAD-dependent Pseudomonas aeruginosa PAO1 D-2-hydroxyglutarate dehydrogenase” (The Journal of Biological Chemistry, 2023).

A word on the Km: it is the concentration of substrate that gives half-maximal velocity. For orientation: kcat means the maximal rate divided by the concentration of active sites. The kcat/Km is the turnover number divided by the Michaelis constant.

B1: PaD2HGDH (Pseudomonas aeruginosa PAO1) (protein)
chain: MTREALIESLKPLVEPGKLLDDAASLDAYGKDWTKHFAPAPLAIVFPKSVEQVQAIVRWANQHKVGLVPSGGRTGLSAAAVAANGEVVVAFDYMNRILDFNAFDRTVVCQPGVVTKQLQTFAEENGLYYPVDFASSGSSQIGGNIGTNAGGIKVIRYGMTRNWVAGMKVVTGKGDLLELNKDLIKNATGYDMRQLFIGAEGTLGFVVEATMRLERTPKNLTAMVLGTPDFDSIMPVLHAFQSKLDLTAFEFFSDKALAKVLARGDVPRAFETDCPFYALLEFEATTEEVANEALATFEHCVEQGWVLDGVMSQSEQQLQNLWKLREYISETISHWTPYKNDISVTVSRVPAFLKDIDAIVEANYPDFEVVWFGHIGDGNLHLNILKPENLGKDEFFAKCATVNKWVFETVEKYNGSISAEHGVGMTKRDYLTYTRSETEIAYMKALKAVFDPNGIMNPGKIFAE
notes: wild type, His-tagged, pET20b(+), expressed in E. coli Rosetta(DE3)pLysS, Ni-NTA purified
Take B1: the Km amounted to 5.1 ± 0.4 mM, the kcat was found to be 38 ± 1 s⁻¹ and the kcat/Km was 7000 ± 500 M⁻¹ s⁻¹.
